Results as given in patent US8247535B2, “Directed evolution of GRG31 EPSP synthase enzyme” (Athenix Corp., priority 2008, dated 2012).

Assays:
GRG31 EPSP synthase [1] = experiment: Extract prescreens of library clones at a few glyphosate and PEP concentrations; format: biochemical; conditions: extracts; for activity in glyphosate prescreen: 0, 1, and 2 mM glyphosate, among 31 resistant clones
Protocol: Library 1 was cloned into pAX3625 and 130,000 clones were plated onto plates containing 50 mM glyphosate. […] Extracts were prepared and assessed for glyphosate resistance by assaying activity in the presence of a small number of glyphosate concentrations (0, 1, and 2 mM glyphosate).
Extracts from these six clones were assayed for activity at a range of PEP concentrations (0, 20, 50, and 100 μM PEP).
One hundred and fifteen thousand (115,000) clones were plated onto plates containing 50 mM glyphosate and 384 glyphosate resistant clones were picked for sequencing. […] A Ki assessment of the unique clones was carried out by testing activity at 0 and 0.2 mM glyphosate. […] An assessment of the Km of protein encoded by these nine clones was performed by comparing activity at 0, 20, and 50 μM PEP.

GRG31 EPSP synthase [2] = experiment: Kinetic analysis of GRG31 variants (Ki for glyphosate, Km for PEP, Vmax); format: biochemical; design: Vmax: unit not given here; conditions: for Ki: Ki for glyphosate, calculated from plot of Km(app) vs. glyphosate concentration; for Km: Km for PEP; for Vmax: unit not given
Protocol: GRG31 variants L3P2b11, L3P2c11 and L4e11, and L5e3 were characterized by enzymatic assays as described herein, and compared to the native GRG31 enzyme. For each enzyme the apparent Km (Km(app)) was determined at each of several glyphosate concentrations, and a plot of Km(app) vs. glyphosate concentration was used to calculate the Ki for each enzyme. The thermostability for each enzyme was assessed by incubating the enzyme at 37° C. for 16 hours, and then quantifying the enzymatic activity remaining (as Vmax) vs. control enzyme that was incubated at 4° C.

Row | Molecule | activity in glyphosate prescreen (GRG31 EPSP synthase [1]) | Ki (GRG31 EPSP synthase [2]) [µM] | Km (GRG31 EPSP synthase [2]) [µM] | Vmax (GRG31 EPSP synthase [2]) | other results
1 | GRG31pm3a11: GRG31 Q-loop library 1 variant, SEQ ID NO:7 (protein, GRG31 variant (clone GRG31pm3a11)) MNQQVITLTHPSKKIQGTVQLTGSKSESNRALIIQSLSKGQVEIANLSEAADTVTLNRVLQIASDPKPGFNTIDCGNAGTSVRFLTGFLNLVKGNFILTGTERMQQRPIGILVDAMKEIGADIHYDKKVGYPPLKIEGGLFQEKDRVKIKGNISSQYISALLLIAPALKKGLTLEIEGELTSRPYVSMTLDMLKSVGIQHEWKNNAIKIAPQAFEKQTIYVEPDWSAASYWYAIAALADANASIVLPGLRKNSLQGDIAIISIMEHFGVQSSFESDGLHLNKKVIGSDVSLFNFKECPDLAQTVVVVAAALKRDVSFTGLETLKIKETDRIAALQKEIAKFGAELIEDGDTYHLKTAQVYQPEEVTFDTYEDHRMAMAFAPLALVFDQIKIAEPQVVEKSYPDFWNHLQAQAFVIE | best activity |  |  |  | activity at low PEP concentrations (GRG31 EPSP synthase [1]; 0, 20, 50, and 100 μM PEP, among six clones): best activity at low PEP concentrations
2 | L4e11: GRG31 variant I75→C; A78→S; Y88→H, SEQ ID NO:16 (protein, GRG31 variant (clone 4e11)) MNQQVITLTHPSKKIQGTVQLTGSKSESNRALIIQSLSKGQVEIANLSEAADTVTLNRVLQIASDPKPGFNTIDCGPSGTAMRFLTAHLNLVKGNFILTGTERMQQRPIGILVDAMKEIGADIHYDKKVGYPPLKIEGGLFQEKDRVKIKGNISSQYISALLLIAPALKKGLTLEIEGELTSRPYVSMTLDMLKSVGIQHEWKNNAIKIAPQAFEKQTIYVEPDWSAASYWYAIAALADANASIVLPGLRKNSLQGDIAIISIMEHFGVQSSFESDGLHLNKKVIGSDVSLFNFKECPDLAQTVVVVAAALKRDVSFTGLETLKIKETDRIAALQKEIAKFGAELIEDGDTYHLKTAQVYQPEEVTFDTYEDHRMAMAFAPLALVFDQIKIAEPQVVEKSYPDFWNHLQAQAFVIE |  | 389 | 12.4 | 3.5 | improvement in Ki for glyphosate relative to GRG31 (GRG31 EPSP synthase [2]; relative to GRG31, in words): improved
3 | L3P2b11 + 6b2: GRG31 variant P77→Q; A81→S; M82→L; Y88→F; N95→S, A206→V, SEQ ID NO:26 (protein, GRG31 variant (L3P2b11+6b2)) MNQQVITLTHPSKKIQGTVQLTGSKSESNRALIIQSLSKGQVEIANLSEAADTVTLNRVLQIASDPKPGFNTIDIGQAGTSLRFLTAFLNLVKGSFILTGTERMQQRPIGILVDAMKEIGADIHYDKKVGYPPLKIEGGLFQEKDRVKIKGNISSQYISALLLIAPALKKGLTLEIEGELTSRPYVSMTLDMLKSVGIQHEWKNNVIKIAPQAFEKQTIYVEPDWSAASYWYAIAALADANASIVLPGLRKNSLQGDIAIISIMEHFGVQSSFESDGLHLNKKVIGSDVSLFNFKECPDLAQTVVVVAAALKRDVSFTGLETLKIKETDRIAALQKEIAKFGAELIEDGDTYHLKTAQVYQPEEVTFDTYEDHRMAMAFAPLALVFDQIKIAEPQVVEKSYPDFWNHLQAQAFVIE |  | 628 | 8 | 0.59 | 
4 | L3P2c11 + 6e7: GRG31 variant Y88→F; E215→K, SEQ ID NO:21 (protein, GRG31 variant (L3P2c11+6e7)) MNQQVITLTHPSKKIQGTVQLTGSKSESNRALIIQSLSKGQVEIANLSEAADTVTLNRVLQIASDPKPGFNTIDIGPAGTAMRFLTAFLNLVKGNFILTGTERMQQRPIGILVDAMKEIGADIHYDKKVGYPPLKIEGGLFQEKDRVKIKGNISSQYISALLLIAPALKKGLTLEIEGELTSRPYVSMTLDMLKSVGIQHEWKNNAIKIAPQAFKKQTIYVEPDWSAASYWYAIAALADANASIVLPGLRKNSLQGDIAIISIMEHFGVQSSFESDGLHLNKKVIGSDVSLFNFKECPDLAQTVVVVAAALKRDVSFTGLETLKIKETDRIAALQKEIAKFGAELIEDGDTYHLKTAQVYQPEEVTFDTYEDHRMAMAFAPLALVFDQIKIAEPQVVEKSYPDFWNHLQAQAFVIE |  | 416 | 8.6 | 23.5 | Vmax improvement over the GRG31(L3P2c11) protein (GRG31 EPSP synthase [2]; relative to GRG31(L3P2c11), in words): about four to five-fold; Vmax relative to GRG31 (GRG31 EPSP synthase [2]; relative to GRG31, in words): approximately equal to that of GRG31; improvement in Ki for glyphosate relative to GRG31 (GRG31 EPSP synthase [2]; relative to GRG31, in words): more than four-fold; improvement in Km for PEP relative to GRG31 (GRG31 EPSP synthase [2]; relative to GRG31, in words): approximately two-fold
5 | GRG31pm3b9: GRG31 Q-loop library 1 variant, SEQ ID NO:11 (protein, GRG31 variant (clone GRG31pm3b9)) MNQQVITLTHPSKKIQGTVQLTGSKSESNRALIIQSLSKGQVEIANLSEAADTVTLNRVLQIASDPKPGFNTIDCDAAGTSMRFLAAYLNLVKGNFILTGTERMQQRPIGILVDAMKEIGADIHYDKKVGYPPLKIEGGLFQEKDRVKIKGNISSQYISALLLIAPALKKGLTLEIEGELTSRPYVSMTLDMLKSVGIQHEWKNNAIKIAPQAFEKQTIYVEPDWSAASYWYAIAALADANASIVLPGLRKNSLQGDIAIISIMEHFGVQSSFESDGLHLNKKVIGSDVSLFNFKECPDLAQTVVVVAAALKRDVSFTGLETLKIKETDRIAALQKEIAKFGAELIEDGDTYHLKTAQVYQPEEVTFDTYEDHRMAMAFAPLALVFDQIKIAEPQVVEKSYPDFWNHLQAQAFVIE | best activity |  |  |  | 
6 | GRG31pm3a6: GRG31 Q-loop library 1 variant, SEQ ID NO:8 (protein, GRG31 variant (clone GRG31pm3a6)) MNQQVITLTHPSKKIQGTVQLTGSKSESNRALIIQSLSKGQVEIANLSEAADTVTLNRVLQIASDPKPGFNTIDCGNAGTSMRFLTAVLNLVKGNFILTGTERMQQRPIGILVDAMKEIGADIHYDKKVGYPPLKIEGGLFQEKDRVKIKGNISSQYISALLLIAPALKKGLTLEIEGELTSRPYVSMTLDMLKSVGIQHEWKNNAIKIAPQAFEKQTIYVEPDWSAASYWYAIAALADANASIVLPGLRKNSLQGDIAIISIMEHFGVQSSFESDGLHLNKKVIGSDVSLFNFKECPDLAQTVVVVAAALKRDVSFTGLETLKIKETDRIAALQKEIAKFGAELIEDGDTYHLKTAQVYQPEEVTFDTYEDHRMAMAFAPLALVFDQIKIAEPQVVEKSYPDFWNHLQAQAFVIE | best activity |  |  |  | 
7 | L3P2b11 + triple EK: GRG31 variant P77→Q; A81→S; M82→L; Y88→F; N95→S, A206→V; E215→K, SEQ ID NO:24 (protein, GRG31 variant (L3P2b11+triple EK)) MNQQVITLTHPSKKIQGTVQLTGSKSESNRALIIQSLSKGQVEIANLSEAADTVTLNRVLQIASDPKPGFNTIDIGQAGTSLRFLTAFLNLVKGSFILTGTERMQQRPIGILVDAMKEIGADIHYDKKVGYPPLKIEGGLFQEKDRVKIKGNISSQYISALLLIAPALKKGLTLEIEGELTSRPYVSMTLDMLKSVGIQHEWKNNVIKIAPQAFKKQTIYVEPDWSAASYWYAIAALADANASIVLPGLRKNSLQGDIAIISIMEHFGVQSSFESDGLHLNKKVIGSDVSLFNFKECPDLAQTVVVVAAALKRDVSFTGLETLKIKETDRIAALQKEIAKFGAELIEDGDTYHLKTAQVYQPEEVTFDTYEDHRMAMAFAPLALVFDQIKIAEPQVVEKSYPDFWNHLQAQAFVIE |  | 606 | 12.3 | 0.72 | 
8 | GRG31pm3a8: GRG31 Q-loop library 1 variant, SEQ ID NO:9 (protein, GRG31 variant (clone GRG31pm3a8)) MNQQVITLTHPSKKIQGTVQLTGSKSESNRALIIQSLSKGQVEIANLSEAADTVTLNRVLQIASDPKPGFNTIDCGPAGTGVRFLTAFLNLVKGNFILTGTERMQQRPIGILVDAMKEIGADIHYDKKVGYPPLKIEGGLFQEKDRVKIKGNISSQYISALLLIAPALKKGLTLEIEGELTSRPYVSMTLDMLKSVGIQHEWKNNAIKIAPQAFEKQTIYVEPDWSAASYWYAIAALADANASIVLPGLRKNSLQGDIAIISIMEHFGVQSSFESDGLHLNKKVIGSDVSLFNFKECPDLAQTVVVVAAALKRDVSFTGLETLKIKETDRIAALQKEIAKFGAELIEDGDTYHLKTAQVYQPEEVTFDTYEDHRMAMAFAPLALVFDQIKIAEPQVVEKSYPDFWNHLQAQAFVIE | best activity |  |  |  | 
9 | L3P2b11 + 6e7: GRG31 variant P77→Q; A81→S; M82→L; Y88→F; E215→K, SEQ ID NO:22 (protein, GRG31 variant (L3P2b11+6e)) MNQQVITLTHPSKKIQGTVQLTGSKSESNRALIIQSLSKGQVEIANLSEAADTVTLNRVLQIASDPKPGFNTIDIGQAGTSLRFLTAFLNLVKGNFILTGTERMQQRPIGILVDAMKEIGADIHYDKKVGYPPLKIEGGLFQEKDRVKIKGNISSQYISALLLIAPALKKGLTLEIEGELTSRPYVSMTLDMLKSVGIQHEWKNNAIKIAPQAFKKQTIYVEPDWSAASYWYAIAALADANASIVLPGLRKNSLQGDIAIISIMEHFGVQSSFESDGLHLNKKVIGSDVSLFNFKECPDLAQTVVVVAAALKRDVSFTGLETLKIKETDRIAALQKEIAKFGAELIEDGDTYHLKTAQVYQPEEVTFDTYEDHRMAMAFAPLALVFDQIKIAEPQVVEKSYPDFWNHLQAQAFVIE |  | 1010 | 10.3 | 0.86 | 
